The values below come from US20210079070A1.

Assay [1] concerns the target BG505 SOSIP.664 Env ectodomain trimer (HIV-1). Description: SPR, BG505 SOSIP.664 captured by mAb 2G12, Fab in the flow phase.
For the next assay, the target named is JRFL SOSIP.664 (HIV-1). Kind of assay: ELISA on soluble trimer, panel JRFL SOSIP.664, OD 450. On the technique in general: ELISA stands for enzyme-linked immunosorbent assay.
For assay [2], the target named is BG505 SOSIP.664 Env ectodomain trimer (HIV-1). Kind of assay: ELISA on soluble trimer, panel BG505 SOSIP.664, OD 450.
In another assay the target is BG505 DS-SOSIP. Kind of assay: ELISA, panels headed BG505 DS-SOSIP, OD 450.
The target of assay [3] is BG505 SOSIP.664 Env ectodomain trimer (HIV-1). Kind of assay: ELISA, panel 'N6 70-03 Binding to BG505 SOSIP.664', HIV-1 Env mutation: WT.
Assay [4] deals with HIV-1 Env (wild type, as used in the mutagenesis mapping of FIG. 6) (HIV-1). Description: cell-based or functional assay.
The target of assay [5] is HIV-1 Env R304E mutant (HIV-1). Kind of assay: cell-based or functional assay.
For assay [6], the target named is BG505 SOSIP.664 Env ectodomain trimer (HIV-1). Kind of assay: ELISA, BG505 SOSIP.664 coated on the plate, HRP anti-human IgG, OD 450.

Usually Kd stands for the equilibrium constant for the complex coming apart. Higher therefore signals lower affinity. With VRC01 Fab, the dissociation constant (Kd) in [1] amounted to 22100 pM.
As a reminder, the EC50 (read off the curve) is the concentration that produces a half-maximal response. Read a low EC50 (read off the curve) as a more potent agent. In the case of VRC01 (antibody), the figures for the concentration for a half-maximal effect (EC50 (read off the curve)) (in the assay with JRFL SOSIP.664 (HIV-1); in [2]) were 0.2 µg/mL and 0.4 µg/mL, respectively.
The molecule N6 Fab gave an equilibrium dissociation constant (Kd) in [1] of 360 pM.
On to N6 (antibody), for which the EC50 (read off the curve) with JRFL SOSIP.664 (HIV-1) was determined as 0.2 µg/mL.

B1: VRC06 (antibody, V domains shown)
VH: EVQLVESGPVMRKPGSSMKISCATSGYNFRDFSIHWVRFNRRYGFEWIGWIKPMWGAVNYARQLQGRVSMSRLFSQDLYYPDRGTAYLEFSGLTSADTADYFCVRRGSSCPHCGDFHFEHWGQGTAVVVSA
VL: EIVLTQSPATLSLSPGERATLSCRASQGGNSLNWYQKRRGQTPRLLIYDTSRRASDIPEKFVGSGSGTDFSLTITKVGPEDFAVYYCQQFEFFGLGTTLEIN
Regarding B1, the concentration giving a half-maximal response (EC50 (read off the curve)) with BG505 DS-SOSIP came out at 0.5 µg/mL.

B2: N6 70-03 (antibody, V domains shown)
VH: RAHLVQSGTAMKKPGASVRVSCQTSGYTFTAHILFWFRQAPGRGLEWVGWIKPQYGAVNFGGGFRDRVTLTRQLSQDPDDPDWGIAYMDIRGLKPDDTAVYYCARDRSYGDSSWALDAWGQGTTVVVSA
VL: YIHVTQSPSSLSVSIGDRVTINCQTSQGVGSDLHWYQHKPGRAPKLLIHHTSSVEDGVPSRFSGSGFHTSFNLTISDLQADDIATYYCQVLQFFGRGSRLHIK
Regarding B2, the EC50 (read off the curve) with JRFL SOSIP.664 (HIV-1) came to 0.2 µg/mL; with E62K/E64K it was 0.1 µg/mL; in assay [3] it was 0.2 µg/mL; in [2], 0.2 µg/mL. Also, the values for the neutralization sensitivity (IC50), Env-pseudovirus infection of TZM-bl cells in assay [4] and in assay [5] were 0.007 µg/mL and 0.053 µg/mL, respectively. In [5], this molecule registered a reduction in neutralization sensitivity compared to the WT virus of 8 fold.

B3: N6 70-03 Fab (Fab, V domains shown)
VH: B2 VH
VL: B2 VL
On to B3, for which, in assay [1], the dissociation constant (Kd) amounted to 16 pM.

B4: VRC03 (antibody, V domains shown)
VH: QVQLVQSGAVIKTPGSSVKISCRASGYNFRDYSIHWVRLIPDKGFEWIGWIKPLWGAVSYARQLQGRVSMTRQLSQDPDDPDWGVAYMEFSGLTSADTAEYFCVRRGSCDYCGDFPWQYWGQGTWVVSSA
VL: EIVLTQSPGILSLSPGETATLFCKASQGGNAMTWYQKRRGQVPRLLIYDTSRRASGVPDRFVGSGSGTDFFLTINKLDREDFAVYYCQQFEFFGLGSELEVH
With B4, the half-maximal effective concentration (EC50 (read off the curve)) turned out to be 0.8 µg/mL in [6] and 0.3 µg/mL with BG505 DS-SOSIP.
